For data set [1], the system named is HeLa Kyoto. The data set can be described thus: solubility change mitosis vs G1/S (difference of NP-40 vs SDS log2 ratios) (log2 ratio difference); higher = more soluble in mitosis.
Data set [2] has as its system HeLa Kyoto. The data set can be described thus: melting temperature (median over replicates), in situ; higher = more thermally stable.
Data set [3] has as its system HeLa Kyoto. Briefly: thermal stability score vs G1/S (z-score of summed log2 fold changes over temperatures); higher = more thermally stable than in G1/S.
Data set [4] concerns HeLa Kyoto. Briefly: solubility in G1/S (NP-40 vs SDS abundance) (log2 ratio); higher = more soluble. Particulars: cell cycle stage: G1/S.
The mark [5] stands for this setting: cell cycle stage: early G1 (4.5 h after nocodazole release).
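Throughout, for melting temperature (median over replicates), in situ: HeLa Kyoto cells synchronized by double thymidine or nocodazole block, proteins quantified by TMT10plex mass spectrometry, three independent biological replicates.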
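Throughout, for solubility change mitosis vs G1/S (difference of NP-40 vs SDS log2 ratios): synchronized HeLa Kyoto cells (double thymidine block for G1/S, nocodazole release for mitosis), protein amounts in NP-40 versus SDS lysates quantified by mass spectrometry, three biological replicates.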
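Throughout, for solubility in G1/S (NP-40 vs SDS abundance): HeLa Kyoto cells arrested at G1/S by double thymidine block, proteins quantified by TMT10plex mass spectrometry in mild NP-40 versus SDS extracts, three biological replicates.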
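Throughout, for thermal stability score vs G1/S (z-score of summed log2 fold changes over temperatures): synchronized HeLa Kyoto cells, proteins quantified by TMT10plex mass spectrometry, three biological replicates, mitosis taken 0.5 h after nocodazole release, G1/S directly after double thymidine block.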

On to “MAQALSEEEFQRMQAQLLELRTNNYQLSDELRKNGVELTSLRQKVAYLDKEFSKAQKALSKSKKAQEVEVLLSENEMLQAKLHSQEEDFRLQNSTLMAEFSKLCSQMEQLEQENQQLKEGAAGAGVAQAGPLVDGELLRLQAENTALQKNVAALQERYGKEAGKFSAVSEGQGDPPGGLAPTVLAPMPLAEVELKWEMEKEEKRLLWEQLQGLESSKQAETSRLQEELAKLSEKLKKKQESFCRLQTEKETLFNDSRNKIEELQQRKEADHKAQLARTQKLQQELEAANQSLAELRDQRQGERLEHAAALRALQDQVSIQSADAQEQVEGLLAENNALRTSLAALEQIQTAKTQELNMLREQTTGLAAELQQQQAEYEDLMGQKDDLNSQLQESLRANSRLLEQLQEIGQEKEQLTQELQEARKSAEKRKAMLDELAMETLQEKSQHKEELGAVRLRHEKEVLGVRARYERELRELHEDKKRQEEELRGQIREEKARTRELETLQQTVEELQAQVHSMDGAKGWFERRLKEAEESLQQQQQEQEEALKQCREQHAAELKGKEEELQDVRDQLEQAQEERDCHLKTISSLKQEVKDTVDGQRILEKKGSAALKDLKRQLHLERKRADKLQERLQDILTNSKSRSGLEELVLSEMNSPSRTQTGDSSSISSFSYREILREKESSAVPARSLSSSPQAQPPRPAELSDEEVAELFQRLAETQQEKWMLEEKVKHLEVSSASMAEDLCRKSAIIETYVMDSRIDVSVAAGHTDRSGLGSVLRDLVKPGDENLREMNKKLQNMLEEQLTKNMHLHKDMEVLSQEIVRLSKECVGPPDPDLEPGETS [GRIPAP1]”, for which the “solubility change mitosis (log2)” value in the data set with HeLa Kyoto [1] is -0.112. Besides, the melting temperature in the data set with HeLa Kyoto [2] (cell cycle stage: G1/S) came to 49.3 °C; with HeLa Kyoto [2] (cell cycle stage: mitosis) it was 49.8 °C. The thermal stability score with HeLa Kyoto [3] (setting [5]) was 0.674; with HeLa Kyoto [3] (cell cycle stage: mitosis), -0.142. The “solubility in G1/S (log2)” value with HeLa Kyoto [4] amounted to 0.476.

Consider “MAQESPKNSAAEIPVTSNGEVDDSREHSFNRDLKHSLPSGLGLSETQITSHGFDNTKEGVIEAGAFQGSPAPPLPSVMSPSRVAASRLAQQGSDLIVPAGGQRTQTKSGPVILADEIKNPAMEKLELVRKWSLNTYKCTRQIISEKLGRGSRTVDLELEAQIDILRDNKKKYENILKLAQTLSTQLFQMVHTQRQLGDAFADLSLKSLELHEEFGYNADTQKLLAKNGETLLGAINFFIASVNTLVNKTIEDTLMTVKQYESARIEYDAYRTDLEELNLGPRDANTLPKIEQSQHLFQAHKEKYDKMRNDVSVKLKFLEENKVKVLHNQLVLFHNAIAAYFAGNQKQLEQTLKQFHIKLKTPGVDAPSWLEEQ [ARFIP1]”, for which, in the data set with HeLa Kyoto [1], the “solubility change mitosis (log2)” value is -0.00419. Moreover, the melting temperature was 51.2 °C in the data set with HeLa Kyoto [2] (cell cycle stage: G1/S) and 50.9 °C with HeLa Kyoto [2] (cell cycle stage: mitosis). In addition, the results for the thermal stability score with HeLa Kyoto [3] (setting [5]) and in the data set with HeLa Kyoto [3] (cell cycle stage: mitosis) were -0.0158 and 0.558, respectively. For the same sequence, the “solubility in G1/S (log2)” value in the data set with HeLa Kyoto [4] turned out to be 0.623.

In the case of “MAQLGKLLKEQKYDRQLRLWGDHGQEALESAHVCLINATATGTEILKNLVLPGIGSFTIIDGNQVSGEDAGNNFFLQRSSIGKNRAEAAMEFLQELNSDVSGSFVEESPENLLDNDPSFFCRFTVVVATQLPESTSLRLADVLWNSQIPLLICRTYGLVGYMRIIIKEHPVIESHPDNALEDLRLDKPFPELREHFQSYDLDHMEKKDHSHTPWIVIIAKYLAQWYSETNGRIPKTYKEKEDFRDLIRQGILKNENGAPEDEENFEEAIKNVNTALNTTQIPSSIEDIFNDDRCINITKQTPSFWILARALKEFVAKEGQGNLPVRGTIPDMIADSGKYIKLQNVYREKAKKDAAAVGNHVAKLLQSIGQAPESISEKELKLLCSNSAFLRVVRCRSLAEEYGLDTINKDEIISSMDNPDNEIVLYLMLRAVDRFHKQQGRYPGVSNYQVEEDIGKLKSCLTGFLQEYGLSVMVKDDYVHEFCRYGAAEPHTIAAFLGGAAAQEVIKIITKQFVIFNNTYIYSGMSQTSATFQL [NAE1]”, the “solubility change mitosis (log2)” value in the data set on HeLa Kyoto [1] is -0.191. The melting temperature with HeLa Kyoto [2] (cell cycle stage: G1/S) worked out at 51.5 °C; in the data set with HeLa Kyoto [2] (cell cycle stage: mitosis), 51.3 °C. Besides, the figures for the thermal stability score with HeLa Kyoto [3] (setting [5]) and in the data set with HeLa Kyoto [3] (cell cycle stage: mitosis) were 0.0621 and 0.146, respectively. The “solubility in G1/S (log2)” value with HeLa Kyoto [4] worked out at 0.0839.

As to “MAQVEKRGGLLRKSSASKKPLKEKVVLMYDEIFMTEDPSKCSPRFWEELFLMKVNLEYLEGKLESLDGEELMKIKDNINCLFQHCIQALGEEHPIRVVNALQTLCALIRGVHQKNKSTSGFDIINMLMGFDKAELCMKNLMESLDSLLCAEGSESLKSLCLKLLLCLVTVTDNISQNTILEYVMINSIFEAILQILSHPPSRREHGYDAVVLLALLVNYRKYESVNPYIVKLSIVDDEATLNGMGLVIAQALSEYNRQYKDKEEEHQSGFFSALTNMVGSMFIADAHEKISVQTNEAILLALYEAVHLNRNFITVLAQSHPEMGLVTTPVSPAPTTPVTPLGTTPPSSDVISSVELPLDADVQTSNLLITFLKYSSIVMQDTKDEHRLHSGKLCLIILTCIAEDQYANAFLHDDNMNFRVNLHRMPMRHRKKAADKNLPCRPLVCAVLDLMVEFIVTHMMKEFPMDLYIRCIQVVHKLLCYQKKCRVRLHYTWRELWSALINLLKFLMSNETVLLAKHNIFTLALMIVNLFNMFITYGDTFLPTPSSYDELYYEIIRMHQSFDNLYSMVLRLSTNAGQWKEAASKVTHALVNIRAIINHFNPKIESYAAVNHISQLSEEQVLEVVRANYDTLTLKLQDGLDQYERYSEQHKEAAFFKELVRSISTNVRRNLAFHTLSQEVLLKEFSTIS [C10ORF76]”, the “solubility change mitosis (log2)” value with HeLa Kyoto [1] was -0.122. In addition, the melting temperature in the data set on HeLa Kyoto [2] (cell cycle stage: G1/S) is 54.1 °C; with HeLa Kyoto [2] (cell cycle stage: mitosis), 55.3 °C. Besides, the figures for the thermal stability score with HeLa Kyoto [3] (setting [5]) and in the data set on HeLa Kyoto [3] (cell cycle stage: mitosis) were -0.1 and -1.32, respectively. The “solubility in G1/S (log2)” value with HeLa Kyoto [4] is -0.113.

On to “MAREMTILGSAVLTLLLAGYLAQQYLPLPTPKVIGIDLGTTYCSVGVFFPGTGKVKVIPDENGHISIPSMVSFTDNDVYVGYESVELADSNPQNTIYDAKRFIGKIFTAEELEAEIGRYPFKVLNKNGMVEFSVTSNETITVSPEYVGSRLLLKLKEMAEAYLGMPVANAVISVPAEFDLKQRNSTIEAANLAGLKILRVINEPTAAAMAYGLHKADVFHVLVIDLGGGTLDVSLLNKQGGMFLTRAMSGNNKLGGQDFNQRLLQYLYKQIYQTYGFVPSRKEEIHRLRQAVEMVKLNLTLHQSAQLSVLLTVEEQDRKEPHSSDTELPKDKLSSADDHRVNSGFGRGLSDKKSGESQVLFETEISRKLFDTLNEDLFQKILVPIQQVLKEGHLEKTEIDEVVLVGGSTRIPRIRQVIQEFFGKDPNTSVDPDLAVVTGVAIQAGIDGGSWPLQVSALEIPNKHLQKTNFN [HSPA13]”, for which, in the data set with HeLa Kyoto [1], the “solubility change mitosis (log2)” value was 0.00641. For the same sequence, the melting temperature with HeLa Kyoto [2] (cell cycle stage: G1/S) was found to be 54.6 °C; with HeLa Kyoto [2] (cell cycle stage: mitosis) it was 53.3 °C. Further, the thermal stability score came out at 4.12 with HeLa Kyoto [3] (setting [5]) and 4.92 with HeLa Kyoto [3] (cell cycle stage: mitosis). In addition, in the data set on HeLa Kyoto [4], the “solubility in G1/S (log2)” value amounted to 0.088.

Turning to “MARGLGAPHWVAVGLLTWATLGLLVAGLGGHDDLHDDLQEDFHGHSHRHSHEDFHHGHSHAHGHGHTHESIWHGHTHDHDHGHSHEDLHHGHSHGYSHESLYHRGHGHDHEHSHGGYGESGAPGIKQDLDAVTLWAYALGATVLISAAPFFVLFLIPVESNSPRHRSLLQILLSFASGGLLGDAFLHLIPHALEPHSHHTLEQPGHGHSHSGQGPILSVGLWVLSGIVAFLVVEKFVRHVKGGHGHSHGHGHAHSHTRGSHGHGRQERSTKEKQSSEEEEKETRGVQKRRGGSTVPKDGPVRPQNAEEEKRGLDLRVSGYLNLAADLAHNFTDGLAIGASFRGGRGLGILTTMTVLLHEVPHEVGDFAILVQSGCSKKQAMRLQLLTAVGALAGTACALLTEGGAVGSEIAGGAGPGWVLPFTAGGFIYVATVSVLPELLREASPLQSLLEVLGLLGGVIMMVLIAHLE [SLC39A7]”, the “solubility change mitosis (log2)” value in the data set on HeLa Kyoto [1] is -0.00492. The melting temperature in the data set on HeLa Kyoto [2] (cell cycle stage: G1/S) was found to be 59.2 °C; in the data set on HeLa Kyoto [2] (cell cycle stage: mitosis) it was 57.1 °C. In addition, the thermal stability score with HeLa Kyoto [3] (setting [5]) is -0.93; in the data set on HeLa Kyoto [3] (cell cycle stage: mitosis) it was -2.25. Also, the “solubility in G1/S (log2)” value in the data set with HeLa Kyoto [4] was -0.392.
